In the assay the target is T1, AMA1_GKO-HC2.2.
T1 construct: PfAMA1_GKO fused to human IgG1 constant region with K392D and K409D already in the entry; also called AMA1GKO-modHC2_K392D-K409D; PfAMA1_GKO-HC2.2-ER
As to the kind of experiment: co-expression in N. benthamiana, SDS-PAGE under reducing and non-reducing conditions.

Data on 1 molecule can be found in patent US20180311326A1 (FRAUNHOFER GESELLSCHAFT ZUR FOERDERUNG DER ANGEWANDTEN …, published 2018).

B1: MSP119_3D7-HC1.2-ER (Fc fusion)
chain: ISQHQCVKKQCPENSGCFRHLDEREECKCLLNYKQEGDKCVENPNPTCNENNGGCDADATCTEEDSGSSRKKITCECTKPDSYPLFDGIFCSSSNAAAKGPSVFPLAPSSKSTSGGTAALGCLVKDYFPEPVTVSWNSGALTSGVHTFPAVLQSSGLYSLSSVVTVPSSSLGTQTYICNVNHKPSNTKVDKKVEPKSCDKTHTCPPCPAPELLGGPSVFLFPPKPKDTLMISRTPEVTCVVVDVSHEDPEVKFNWYVDGVEVHNAKTKPREEQYNSTYRVVSVLTVLHQDWLNGKEYKCKVSNKAFPAPIEKTISKAKGQPREPQVYTLPPSRDKLTKNQVSLTCLVKGFYPSDIAVEWESNGQPENNYKTTPPVLKSDGSFFLYSKLTVDKSRWQQGNVFSCSVMHEALHNHYTQKSLSLSPGKSEKDEL
notes: PfMSP119 (3D7) fused to human IgG1 constant region with E356K and D399K already in the entry; also called MSP119-modHC1_E356K-D399K; PfMSP119_3D7-HC1.2-ER
Turning to B1, the binding result is “binds”.
